Where a chain is given by its changes, count along the chain named.
B1: B1.225: anti-MDR1 antibody, Mouse; VH SEQ ID NO:105, VL SEQ ID NO:109 (antibody, listed as Mus musculus, V domains shown)
VH: EVQLVESGGALVKPGGSLKLSCAASGFTFSNYGMSWVRQTPEKRLEWVATISSGGSYTYYPDTVKGRFTISRDNAKNTLHLQMSSLRSEDTALYYCARRGTNDAWFGYWGQGTLVTVSA
VL: DVVMTQTPLSLPVSLGDQASISCRFSQSIVHSNGNTYLEWYLQKPGQSPKLLIYKVSNRFFGVPDRFSGSGSGTDFTLKISRVEAEDLGVYFCFQGSHVPQYTFGGGTKLEIK
B2: B1.226: anti-MDR1 antibody, Mouse; VH SEQ ID NO:112, VL SEQ ID NO:113 (antibody, listed as Mus musculus, V domains shown)
VH: EVQLVESGGALVKPGGSLKLSCAASGFTFSNYAMSWVRQTPETRLEWVATISSGGSYTYYPDSVKGRFTISRDNAKNTLYLQMSSLRSEDTALYYCARYSNLAWFAYWGQGTLVTVSA
VL: DVVMTQTPLSLPVSLGDQASISCRSSQSIVHSNGNTYLDWYLQKPGQSPKFMIYKVSNRFSGVPDRFSGSGSGTDFTLKISRVEAEDLGVYYCFQGSHVPYTFGGGTKLEIK
B3: B1.188: anti-MDR1 antibody, Mouse; VH SEQ ID NO:66, VL SEQ ID NO:79 (antibody, listed as Mus musculus, V domains shown)
VH: EVMLVESGGALVKPGGSLKLSCAASGFTFSNYAMSWVRQTPEKRLEWVATISSGGSYTYYPDSVKGRFTISRDNARNTLYLQMSSLRSEDTAMYYCARGYGNFAWFAYWGQGTLVTVSA
VL: B2 VL with V2I, V3Q, T7S, N33T, D39E, F51L, M52L, Y101F, G105S
B4: B1.198: anti-MDR1 antibody, Mouse; VH SEQ ID NO:88, VL SEQ ID NO:90 (antibody, listed as Mus musculus, V domains shown)
VH: B2 VH with T43K, R98K, L102Y, A103G, W104R
VL: B2 VL with H31D, D39E, F51L, M52L, S61F
B5: B1.184: anti-MDR1 antibody, Mouse; VH SEQ ID NO:74, VL SEQ ID NO:76 (antibody, listed as Mus musculus, V domains shown)
VH: B2 VH with E1G, T43K, N77T, S85G, R98K, L102Y, A103G, W104R, Y107S, A118T
VL: B2 VL with V3L, N33S, D39E, K50R, F51L, M52L, S61F, F67I, K79R
B6: B1.219: anti-MDR1 antibody, Mouse; VH SEQ ID NO:99, VL SEQ ID NO:101 (antibody, listed as Mus musculus, V domains shown)
VH: B2 VH with T43K, G54V, N77T, S85G, R98K, L102Y, A103G, W104R, Y107S, A118T
VL: DVLMTQTPLSLPASLGDQASISCRSSQSIVHSSGNTYLEWYLQKPGQSPRLLIYKVSNRFFGVPDRISGSGSGTDFTLRISRVEAEDLGVYYCFQGSHVPYTFGGGTKLEIE
B7: B1.236: anti-MDR1 antibody, Mouse; VH SEQ ID NO:115, VL SEQ ID NO:116 (antibody, listed as Mus musculus, V domains shown)
VH: EAQLVESGGALVKPGGSLKLSCSASGFTFSNYAMSWVRQTPEKRLEWVATISSGGTNTYYPGSVKGRFTIARDNAKNTLYLLMSSLRSEDTALYFCAKYSNLAWFASWGQGTLVTVSA
VL: B2 VL with D1Q, V2I, M4L, T7S, I29L, N33I, D39E, M52L, Y54S, V90I

These molecules were tested on A2780 ADR ovarian carcinoma (assay: A2780 ADR drug-resistant ovarian carcinoma model in nude mice). Settings: antibody as a single agent.
Format: in vivo
Experimental: Anti-ABCB1 antibodies B1.129, B1.261, B1.223, B1.225, B1.188, B1.28, and B1.226 were tested for effect on growth of tumors in immunodeficient mice. The following cancer cell lines were used for generating tumor models.
A2780 ADR: The adriamycin-resistant cell line A2780ADR has been developed by exposure of the parent A2780 cell line (Sigma catalogue no. 93112519) to adriamycin. A2780ADR is cross-resistant to melphalan and vinblastine. To retain resistance adriamycin has to be added to the media. The cells grow as a monolayer and in suspension in spinner cultures and are tumorigenic in immune deficient mice. Together with the cisplatin-resistant variant A2780cis these lines only differ in their exposure to a single drug and should facilitate the search for molecular changes responsible for the expression of pleiotropic drug resistance in human ovarian cancer.
Nude mice were implanted with A2780 ADR cells to model ovarian carcinoma. Anti-B1 monoclonal antibodies are efficacious in A2780 ADR ovarian carcinoma model in nude mice.

Molecule	tumor volume, single agent
B1	decreased tumor volume
B2	decreased tumor volume
B3	decreased tumor volume

Same assay, conditions: antibody plus paclitaxel

Molecule	tumor volume, in combination with paclitaxel
B1	decreased tumor volume
B2	decreased tumor volume
B3	decreased tumor volume

These molecules were tested against T1, human MDR1 extracellular loops 1 and 4 (ECD1, ECD4) (Homo sapiens, UniProt P08183) (assay: Epitope mapping with mutant human MDR1 expressed on 293T cells (flow cytometry)). Settings: extracellular loop 1 and extracellular loop 4.
T1 construct: FLAG (C); expressed in transfected cells; host or cells: 293T
Format: binding
Excerpt: To determine binding of anti-MDR1 mAbs listed in Table 2 to the two major extracellular loops 1 and 4 of MDR1, various mutations were constructed to alter or substitute these two loops. To examine binding to cynomolgus extracellular loops, the extracellular loop 1 and/or loop 4 of cynomolgus MDR1 were grafted (with a C-terminal FLAG tag) to substitute for the human loops in the human MDR1 using standard techniques. To examine binding dependence on the normal human loops, MDR1 variants with deletion 79-102 and deletion 82-99 in loop 1 were also generated. Loop 1 is also referred to as ECD1. Loop 4 is also referred to as ECD4. These mutant MDR1 efflux pump variants were expressed on 293T cells using standard methods to generate cells that could be used to distinguish binding of various anti-MDR1 mAbs. The different cells were incubated with different anti-MDR1 mAbs for about 1 hour at 4° C. The cells were washed twice with FACS buffer (PBS containing 0.5% BSA). Alexa647 labeled goat anti-human antibody was added as a secondary antibody, and the samples were incubated on ice for another 1 hour. Samples were washed again and analyzed by flow cytometry.
FIG. 9 summarizes the findings from preliminary epitope mapping using mutant human MDR1. […] For example, anti-MDR1 mAb B1.129 requires ECD1 and ECD4 for binding to human MDR1. All of the anti-MDR1 antibodies contact ECD4. […] ECD1 refers to the first extracellular domain of human ABCB1, ECD4 refers to the fourth extracellular domain of human ABCB1 and “others” refers to the remainder of the extracellular domains 2-3 and 5-6 of human ABCB1. Only binding to ECD1 and ECD4 was tested.

Molecule	epitope on human MDR1
B4	bind to an epitope comprising extracellular loop 1 and extracellular loop 4
B5	bind to an epitope comprising extracellular loop 1 and extracellular loop 4
B6	bind to an epitope comprising extracellular loop 1 and extracellular loop 4
B7	bind to an epitope comprising extracellular loop 1 and extracellular loop 4

From patent publication US20230203156A1, “ANTI-MDR1 ANTIBODIES AND USES THEREOF” (KENJOCKETY BIOTECHNOLOGY, INC., priority 2020, published 2023)
